Patent publication US6491908
Read-outs that look alike come from different tables or passages of the source.

How the values were obtained:
Test in all cases: cell-based or functional assay
[1] = molecular target: CD3 portion of the T cell receptor on Jurkat cells (human) (UniProt P07766)
[2] = molecular target: CD3 portion of the T cell receptor on Jurkat cells (human) (UniProt P07766); remark: listed apart in the source
[3] = molecular target: D^d/zeta chimera (mouse class I MHC D^d fused to the murine T cell receptor zeta chain) (mouse) (UniProt P24161)
[4] = molecular target: mouse class I MHC D^d (full length, without signaling molecule) (mouse) (UniProt P01900)
Sequence of mouse class I MHC D^d (full length, without signaling molecule) (mouse) (P01900 25-365): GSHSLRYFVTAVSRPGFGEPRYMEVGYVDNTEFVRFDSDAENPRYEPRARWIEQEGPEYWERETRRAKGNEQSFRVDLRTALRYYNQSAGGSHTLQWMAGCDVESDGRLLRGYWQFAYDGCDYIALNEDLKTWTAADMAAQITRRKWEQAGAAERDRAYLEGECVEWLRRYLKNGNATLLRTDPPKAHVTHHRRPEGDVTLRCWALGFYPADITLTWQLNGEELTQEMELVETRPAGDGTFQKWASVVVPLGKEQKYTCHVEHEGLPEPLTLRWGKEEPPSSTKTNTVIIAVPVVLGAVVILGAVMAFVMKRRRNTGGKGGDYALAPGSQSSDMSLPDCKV

[5] = molecular target: D^d/zeta chimera (mouse class I MHC D^d fused to the murine T cell receptor zeta chain) (mouse) (UniProt P24161); remark: listed apart in the source
[6] = molecular target: mouse class I MHC D^d (full length, without signaling molecule) (mouse) (UniProt P01900); remark: listed apart in the source

Sequence of CD3 portion of the T cell receptor on Jurkat cells (human) (P07766 23-207): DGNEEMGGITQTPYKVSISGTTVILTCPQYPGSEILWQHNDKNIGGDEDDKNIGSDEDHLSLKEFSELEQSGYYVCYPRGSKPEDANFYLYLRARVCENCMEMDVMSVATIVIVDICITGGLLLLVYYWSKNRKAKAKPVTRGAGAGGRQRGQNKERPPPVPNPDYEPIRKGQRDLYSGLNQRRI

Proliferation (CPM) of CTLL-2 cells (IL-2 in supernatant of untransfected Jurkat cells), with PMA [1] [CPM] | Proliferation (CPM) of CTLL-2 cells (IL-2 in supernatant of untransfected Jurkat cells), without PMA [1] [CPM] | Proliferation (CPM) of CTLL-2 cells (IL-2 in supernatant of #19 (D^d) Jurkat cells), with PMA [2] [CPM] | Proliferation (CPM) of CTLL-2 cells (IL-2 in supernatant of #19 (D^d) Jurkat cells), without PMA [2] [CPM] | Proliferation (CPM) of CTLL-2 cells (IL-2 in supernatant of J11-6 (D^d/zeta) Jurkat cells), with PMA [3] [CPM] | Proliferation (CPM) of CTLL-2 cells (IL-2 in supernatant of J11-6 (D^d/zeta) Jurkat cells), without PMA [3] [CPM] | cellular proliferation ([3H]TdR) of spleen lymphoid cells of D^d/zeta transgenic mice, anti-D^d + anti-CD8 + anti-CD3 mAbs together [3] | cellular proliferation ([3H]TdR) of spleen lymphoid cells of D^d/zeta transgenic mice, anti-D^d + anti-CD8 mAbs together [3] | cellular proliferation ([3H]TdR) of spleen lymphoid cells of D^d/zeta transgenic mice, anti-D^d mAb alone [3] | fold enhancement of proliferation over the D^d alone expressing cells [3] [fold] | cellular proliferation ([3H]TdR) of spleen lymphoid cells of pD^d1 (D^d) transgenic mice, anti-D^d + anti-CD8 + anti-CD3 mAbs together [4] | cellular proliferation ([3H]TdR) of spleen lymphoid cells of pD^d1 (D^d) transgenic mice, anti-D^d + anti-CD8 mAbs together [4] | cellular proliferation ([3H]TdR) of spleen lymphoid cells of pD^d1 (D^d) transgenic mice, anti-D^d mAb alone [4] | Proliferation (CPM) of CTLL-2 cells (IL-2 in supernatant of J11-6 (D^d/zeta) Jurkat cells), with PMA [5] [CPM] | Proliferation (CPM) of CTLL-2 cells (IL-2 in supernatant of J11-6 (D^d/zeta) Jurkat cells), without PMA [5] [CPM] | Proliferation (CPM) of CTLL-2 cells (IL-2 in supernatant of #19 (D^d) Jurkat cells), with PMA [6] [CPM] | Proliferation (CPM) of CTLL-2 cells (IL-2 in supernatant of #19 (D^d) Jurkat cells), without PMA [6] [CPM] | Substance
2200 | 1180 | 10900 | 9530 |  |  |  |  |  |  |  |  |  |  |  |  |  | OKT3, an anti-CD3 antibody
 |  |  |  | 26800 | 338 | 253000 | 242000 | 303000 | 10 to 300 | 25000 | 1240 | 897 | 16700 | 361 | 5520 | 492 | anti-D^d monoclonal antibody (34-2-12)
